Test results taken from patent US8030043B2, “β-galactoside-α2,3-sialyltransferase, a gene encoding thereof, and a method for producing thereof” (Japan Tobacco Inc., priority 2005, dated 2011).

Assay: Sialyltransferase activity in E. coli homogenate (crude enzyme solution), transfer of 14C-NeuAc from CMP-NeuAc to lactose
Type: biochemical
Conditions: lactose acceptor; for Radioactivity (cpm) Average: average of duplicate; for Sialyltransferase activity in crude enzyme solution (in words): CMP-14C-NeuAc donor
Procedure: Sialyltransferase activity was measured as described in J. Biochem., 120, pp. 104-110 (1996) (which is hereby incorporated by reference in its entirety). More specifically, the enzymatic reaction was accomplished by using CMP-NeuAc (70 nmol, containing 25000 cpm CMP-NeuAc in which NeuAc was labeled with ^14C, 356 cpm/nmol; NeuAc represents N-acetylneuraminic acid) as a glycosyl donor substrate, lactose (1.25 μmol) as a glycosyl acceptor substrate, NaCl added to give a concentration of 0.5 M, and the enzyme-containing reaction solution (30 μl) prepared as described above. The enzymatic reaction was carried out at 25° C. for 10 to 30 minutes. After completion of the reaction, 1.97 ml of 5 mM phosphate buffer (pH 6.8) was added to the reaction solution, which was then applied to a Dowex 1×8 (PO4^3− form, 0.2×2 cm, BIO-RAD) column. The radioactivity was measured for the reaction product, i.e., sialyllactose contained in the eluate (0 to 2 ml) from this column to calculate the enzyme activity.
An induction experiment of protein expression was performed on the two 467-N0C0 clones and the three 467-N2C0 clones obtained in (4) above. A single colony of E. coli TB1 having the expression vector pTrc99A carrying each clone was inoculated into LB medium (5 ml) containing an antibiotic, ampicillin (final concentration 100 μg/mL), and pre-cultured at 30° C. to about A600=0.5, followed by addition of IPTG (isopropyl-β-D(−)-thiogalactopyranoside, Wako Pure Chemical Industries, Ltd. Japan) at a final concentration of 1 mM. After culturing with shaking at 30° C. for an additional 4 hours, the cells in 2 ml culture solution were collected by centrifugation. These cells were suspended in 200 μl of 20 mM BisTris buffer (pH 7.0) containing 0.336% Triton X-100 and 0.5 M sodium chloride, and ultrasonically homogenized under ice cooling. The resulting homogenate was defined as a crude enzyme solution and provided for activity measurement. The reaction was carried out in duplicate, and the reaction composition was the same as shown in Example 1, except that the reaction time was set to 15 hours.
In the same manner as shown in Example 5(5), an induction experiment of protein expression was performed on 2 clones, i.e., the first clone of ISH224-N0C0 and the first clone of ISH224-N1C0 to measure their enzyme activity.
In the same manner as shown in Example 5(5), an induction experiment of protein expression was performed on 3 clones, i.e., the first clone of FAJ-N0C0 as well as the first and second clones of FAJ-N1C0 to measure their enzyme activity.

[1] = JT-ISH-467 gene clones, 25° C., reaction time 15 hours
[2] = JT-ISH-224 gene clones, as Example 5(5)
[3] = JT-FAJ-16 gene clones, as Example 5(5)

Row | Molecule | Radioactivity (cpm) Round 1 [1] [cpm] | Radioactivity (cpm) Round 2 [1] [cpm] | Radioactivity (cpm) Average [1] [cpm] | Sialyltransferase activity in crude enzyme solution (in words) | Radioactivity (cpm) Round 1 [2] [cpm] | Radioactivity (cpm) Round 2 [2] [cpm] | Radioactivity (cpm) Average [2] [cpm] | Radioactivity (cpm) Round 1 [3] [cpm] | Radioactivity (cpm) Round 2 [3] [cpm] | Radioactivity (cpm) Average [3] [cpm]
1 | ISH467-N2C0 third clone: JT-ISH-467 sialyltransferase lacking signal peptide region, nucleotides 73 to 1230 of SEQ ID NO: 1, no mutation (protein, listed as Photobacterium phosphoreum, CDS (1)..(1230) /gene=“467-23ST” /product=“Beta-galactoside- alpha 2,3-sialyltransferase”) MFVFCKKIFFLIFISLMILGGCNSDSKHNNSDGNITKNKTIEVYVDRATLPTIQQMTQIINENSNNKKLISWSRYPINDETLLESINGSFFKNRPELIKSLDSMILTNEIKKVIINGNTLWAVDVVNIIKSIEALGKKTEIELNFYDDGSAEYVRLYDFSRLPESEQEYKISLSKDNIQSSINGTQPFDNSIENIYGFSQLYPTTYHMLRADIFETNLPLTSLKRVISNNIKQMKWDYFTTFNSQQKNKFYNFTGFNPEKIKEQYKASPHENFIFIGTNSGTATAEQQIDILTEAKKPDSPIITNSIQGLDLFFKGHPSATYNQQIIDAHNMIEIYNKIPFEALIMTDALPDAVGGMGSSVFFSLPNTVENKFIFYKSDTDIENNALIQVMIELNIVNRNDVKLISDLQ | 8547 | 8481 | 8514 | sialyltransferase activity was also observed | – | – | – | – | – | –
2 | ISH224-N1C0 first clone: JT-ISH-224 sialyltransferase lacking signal peptide region, nucleotides 73 to 1230 of SEQ ID NO: 28 (protein, listed as Photobacterium sp., CDS (1)..(1230) /gene=“224-23ST” /product=“Beta-galactoside-alpha-2,3-sialyltransferase”) MLVFCKKMFFSVFISLMILGGCNSDSNHNNSDGNITKNKTIEVYVDRATLPTIQQMTQIINENSNNKKLISWSRYPINDEELLESINGSFFKNNSELIKSLDSMILTNDIKKVIINGNTLWAADVVNIIKSIEAFGKKTEIELNFYDDGSAEYVRLYDFSKLPESEQEYKISLSKDNILSSINGTQPFENVVENIYGFSQLYPTTYHMLRADIFETNLPLRSLKGVLSNNIKQMKWDYFKTFNSQQKDKFYNFTGFNPDEIMEQYKASPNKNFIFVGTNSGTATAEQQIDILTEAKNPNSPIITKSIQGFDLFFKGHPSATYNKQIIDAHNMIEIYNKIPFEALIMTDALPDAVGGMGSSVFFSLPNTVENKFIFYKSDTDIENNALIQVMIELNIVNRNDVKLISDLQ | – | – | – | sialyltransferase activity was observed | 9330 | 9415 | 9672.5 | – | – | –
3 | FAJ-N1C0 first clone: JT-FAJ-16 sialyltransferase lacking signal peptide region, nucleotides 67 to 1209 of SEQ ID NO: 30 (protein, listed as Vibrio sp., CDS (1)..(1209) /gene=“FAJ16-23ST” /product=“Beta-galactoside- alpha 2,3-sialyltransferase”) MKNIITKRMLIILSSLFTIIGCNNDNSTTTNNNAIEIYVDRATLPTIQQMTKIVSQKTSNKKLISWSRYPITDKSLLKKINAEFFKEQFELTESLKNIILSENIDNLIIHGNTLWSIDVVDIIKEVNLLGKNIPIELHFYDDGSAEYVRIYEFSKLPESEQKYKTSLSKNNIKFSIDGTDSFKNTIENIYGFSQLYPTTYHMLRADIFDTTLKINPLRELLSNNIKQMKWDYFKDFNYKQKDIFYSLTNFNPKEIQEDFNKNSNKNFIFIGSNSATATAEEQINIISEAKKENSSIITNSISDYDLFFKGHPSATFNEQIINAHDMIEINNKIPFEALIMTGILPDAVGGMGSSVFFSIPKEVKNKFVFYKSGTDIENNSLIQVMLKLNLINRDNIKLISDI | – | – | – | sialyltransferase activity was observed | – | – | – | 5664 | 6724 | 6194
